# Laboratory results from patent publication US20210179680A1, “POLYPEPTIDE, DERIVATIVES THEREOF, AND APPLICATION THEREOF IN PREPARATION OF DRUGS HAVING RESISTANCE TO PULMONARY FIBROSIS” (priority 2016, published 2021).
# Bridge positions count the residues as written; N and C are the ends. Square brackets hold non-standard residues; d marks the D form. Ends that are not written are not given here. S5 = C=CCCC[C@](C)(N)C(=O)O
# T1: Purified TRB3 protein (purchased from RD) (UniProt Q96RU7 1-358, limits assumed)
# T1 construct: Amine-coupled to the Biacore chip; also called Tribbles Homologue 3
# T1 sequence (looked up): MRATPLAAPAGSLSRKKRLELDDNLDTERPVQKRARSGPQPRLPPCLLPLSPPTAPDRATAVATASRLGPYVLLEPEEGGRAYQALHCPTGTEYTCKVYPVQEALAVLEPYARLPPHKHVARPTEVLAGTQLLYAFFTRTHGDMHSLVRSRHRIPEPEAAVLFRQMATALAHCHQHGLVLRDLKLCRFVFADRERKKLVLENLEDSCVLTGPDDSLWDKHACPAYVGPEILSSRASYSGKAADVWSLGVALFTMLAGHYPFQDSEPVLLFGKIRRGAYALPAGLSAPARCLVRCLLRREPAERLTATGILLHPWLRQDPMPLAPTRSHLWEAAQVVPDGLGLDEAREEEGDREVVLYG
# Target: T1, Purified TRB3 protein (purchased from …)
# Test: SPR, Biacore T200, TRB3 amine-coupled to chip, peptide as analyte, 25° C.
# Method: The surface plasmon resonance experiment was carried out in a surface plasmon resonator Biacore T200, and the procedure was carried out in accordance with the instructions of the plasma resonator Biacore T200. Specific steps are as follows:
# 1. Purified TRB3 protein (purchased from RD) was coupled to a CMS chip (purchased from GE) by amidogen, and the unbound protein was eluted at a flow rate of 10 μL/min. The surface of the chip was equilibrated for 2 hours. Among them, the specific steps of amidogen coupling, elution and equilibration refer to the relevant instruction of GE's CMS chip.
# 2. […] The buffer used was HBS-EP buffer [0.01 M HEPES, 0.15 M NaCl, 3 mM EDTA and 0.005% (w/w) surfactant TWEEN20]. Biacore T200's built-in analysis software was used to simulate the binding curves of different concentrations of peptides to TRB3. FIG. 4-1, 4-2 and Table 1 illustrate that peptides MR2, S1, S2, S3, S4, S5, S6, S7, S8, S9, S10 and S11 can all interacted with the TRB3 protein.
row,Kd [nM],Binder
1,37.7,"HLMACFTCAK[S5]LKK[S5] (staple 11-15; cysteine pairing not given here, Stapled variant of MR2) [polypeptide S11]"
2,19.1,"H[S5]MAC[S5]TCAKKLKKR (staple 2-6; cysteine pairing not given here, Stapled variant of MR2) [polypeptide S2]"
3,43.3,HLMACFTCAKKLKKR (Synthetic unmodified 15-mer; also called MR2 polypeptide) [polypeptide MR2]
4,42.7,"HL[S5]ACF[S5]CAKKLKKR (staple 3-7; cysteine pairing not given here, Stapled variant of MR2) [polypeptide S3]"
5,37.1,"HLMACFTC[S5]KKL[S5]KR (staple 9-13; cysteine pairing not given here, Stapled variant of MR2) [polypeptide S9]"
6,20.2,"[S5]LMA[S5]FTCAKKLKKR (staple 1-5, Stapled variant of MR2) [polypeptide S1]"
7,49.6,"HLMAC[S5]TCA[S5]KLKKR (staple 6-10; cysteine pairing not given here, Stapled variant of MR2) [polypeptide S6]"
8,8.95,"HLMACF[S5]CAK[S5]LKKR (staple 7-11; cysteine pairing not given here, Stapled variant of MR2) [polypeptide S7]"
9,11.5,"HLMA[S5]FTC[S5]KKLKKR (staple 5-9, Stapled variant of MR2) [polypeptide S5]"
10,35.9,"HLMACFT[S5]AKK[S5]KKR (staple 8-12, Stapled variant of MR2) [polypeptide S8]"
11,29.3,"HLMACFTCA[S5]KLK[S5]R (staple 10-14; cysteine pairing not given here, Stapled variant of MR2) [polypeptide S10]"
12,9.63,"HLM[S5]CFT[S5]AKKLKKR (staple 4-8, Stapled variant of MR2) [polypeptide S4]"
